Measured values from patent US20250034594A1, “RNA-GUIDED GENOME RECOMBINEERING AT KILOBASE SCALE” (THE BOARD OF TRUSTEES OF THE LELAND STANFORD JUNIOR …, priority 2021, published 2025).

Legend:
Format in all cases: cell-based
[1] = tested on: gene editing with Cas9 and dCas9; assay: Screen of 322 new SSAP proteins, activity across all experiments (Cas9 and dCas9, Table 5); design: scale not given here
Summary of the method: (§1)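 First, 322 new single-strand annealing proteins are identified from sequences. Next they are synthesized. Finally each is assayed for editing in combination with Cas9 and, separately, dCas9.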

gene editing with dCas9 = assay: Screen of 322 new SSAP proteins, gene editing activity with dCas9 (Table 5); design: dCas9 with SSAP activity: scale not given here
Summary of the method: as §1

gene editing with Cas9 = assay: Screen of 322 new SSAP proteins, gene editing activity with Cas9 (Table 5); design: Cas9 with SSAP activity: scale not given here
Summary of the method: as §1

Molecule | Activity across all experiments [1] | dCas9 with SSAP activity (gene editing with dCas9) | dCas9 with SSAP activity (normalized) (gene editing with dCas9) | Cas9 with SSAP activity (gene editing with Cas9) | Cas9 with SSAP activity (normalized) (gene editing with Cas9)
SSAP_27: SEQ ID NO: 196 (protein) SNNQLSTQQAKRDIAIDTSVWTFQDVKRYFDPQNLLTEKQVGQALSLIKGRNLNPLANEVYIVAYKKKTGGTEFSLIVSKEAFLKRAAQNPNYEGFEAGVVTVDTDGVMHERKGALMLPGDTLVGGWARVYRKNFKVPVEIFVSREEYDKKQSTWNAMPATMIRKTALVNALREAFPEDLGNMYTEDDGGETFDRIKQAEPVESREDVMARKMAQIEQMKQEQAQRQIDTSYPTDDVIDPDDEPAQGELLEDLEY | −3.661 | −4.680 | −0.675 | −2.642 | −0.956
SSAP_74: SEQ ID NO: 243 (protein) SNPPLAQADLQKTQGTEVKTKTKDQQLIHFINQPSMKAQLAAALPRHMTPDRMIRIVTTEIRKTPALANCDMQSFIGAVVQCSQLGLEPGNALGHAYLLPFGNGKAKSGQSNVQLIIGYRGMIDLARRSNQIISISARTVRQGDSFHFEYGLNENLTHVPGENEDSPITHVYAVARLKDGGVQFEVMTHNQIEKVRASSKAGQNGPWVSHWEEMAKKTVIRRLFKYLPVSIEMQKAVILDEKAEANVDQENASVFEGEFEEVSQSA | 0.781 | 0.668 | 0.984 | 0.893 | 0.751
SSAP_170: SEQ ID NO: 339; Dorea longicatena (protein, listed as Dorea longicatena) TVGKTDEIKQELARKVENTKAGTKLKKSMSIADMIKVMEPQIKKALPEVITPERFTRMALSALNTTPKLNECTPMSFLAALMNAAQLGLEPNTPLGQAFLIPYNNKGKMECQFQLGYKGLIDLSYRNPNMQIITAHTVYENDEFEYELGLNPCLDHRPTLGERGEIRLFYGLFKLTNGGFGFEVMSKTAMDDFAKEYSKAFDSSFSPWRTNYESMALKTIIKKALKYAPLKSEFRNALSTDETIKNEIGADMSEINSENIFDTVYQEECA | −1.184 | −4.682 | −0.968 | 2.314 | 1.852
SSAP_97: SEQ ID NO: 266; Gilliamella apicola (protein, listed as Gilliamella apicola) SEQNQPPIAKSDLEKTQLTNQDKKPATLAELVNSPKIKNQLAMALPKHMNPDRMARIVTTEIRKTPALADSNIQSFLGAVVQCSQLGLEPGGALGHAYLLPFGNGKAKDGKSNVQLIIGYRGMIDLARRSGQIISISARTVREGDDFHYEYGLNEDLKHTPKADESAPITYVYAVARLKDGGSQFEVMTFNQIESVRKQSKAGDKGPWITHWEEMAKKTVIRRLFKYLPVSIEIQQAVILDEKAEAGISQDNEMILDADFSVVEA | −5.290 | −4.633 | −0.842 | −5.948 | −1.267
SSAP_103: SEQ ID NO: 272; Zymobacter palmae (protein, listed as Zymobacter palmae) TNTVQQQAPQQDQLAQQLQQASGNTPQKKPMPSTIQGMLKDDRFKTQIARALPKHVTPERIMRIALTEINKTPKLKECDPIGLFGSIVQSAQLGLELGGALGHAYLVPYGKQAQFIIGYRGMIDLARRSGQMVSLQAHTVHENDEFNFEYGLNENLRHVPARGERGPMIAVYAVAKLVGGGHQIEVMWKEDVDAVRKSSKAGGSGPWRDHYEEMAKKTAIRRLFKYLPVSVEMQRAVSLDEQAEEGVQDNNVFDGDYTVAEH | −2.611 | −4.540 | −0.705 | −0.682 | −0.190
SSAP_176: SEQ ID NO: 345; Absicoccus porci (protein, listed as Absicoccus porci) TTTNQQGMITKKANNSVAKKTNRTMKDYITMYQGEIAKALPSVMTPERFVRIATTAVTNTPKLASCTPQSFIGALLNAAQLGLEPNTPLGQAYLIPYGNQCQFQIGYLGMVELAQRAGTNVDAHVVYANDEFDYSLGLHPDIKHVPAMKDRGEAIAYYAVWHNGENFGFEVMSREDVEKHMKKYSKTYSNGPWKTEFDEMAKKTVLKRALKYAPKKTDLARAVMQDETIKQFNPKADNDMADAKNDFFDVEYDEVDENTDPVTGEVK | −1.789 | −4.682 | −0.680 | 1.105 | 2.418
SSAP_266: SEQ ID NO: 435; Bacteroides stercoris (protein, listed as Bacteroides stercoris) STITTIPQLKSMLANDNVKARFKEILGKKAPGFISSIVAVANSNTLLQKAEPQSIMNAAVVAATLDLPINPNLGFAYVVPYGNQAQFQMGWRGFVQLAMRSGQYKTINVNEIYEGEIKKSNRFTGEYEFGERASDKIVGYMAYFSLINGFEKFLYMSKEDCEKHGRKFSQTYKRGTGIWSTDFDSMAKKTVLKMLLSKFGILSIEMQRAQTFDQAIIKDNLAETDIDEAEVSYNDNPDNEEARRNAMKEALQEAEVVDENTGELFNTETK | −5.345 | −4.677 | −0.799 | −6.013 | −1.700
SSAP_130: SEQ ID NO: 299; Peptoanaerobacter stomatis (protein, listed as Peptoanaerobacter stomatis) GAKELIQKKQENKQISPTSNMNMLLQSMAGAIKKALPAQINSERFQRVALTAFSSNQKLQQCDPISFLAAMMQSAQLGLEPNTPLGQAYLIPYGKQVQFQVGYKGLLELAQRSGQFKSIYSHEVRENDEFEMEYGLNQKLVHKPNLKQERGEVIGYYACYHLTNGGESMFFMTKDEIINFGKSKSKTFNNGPWQTDFDAMAKKTVLKQLLKYAPLSIESQKFMSMDETVKSDISANMDEINNDTVDFEVDIQTGEVINDIVVENTNEDEAN | −2.714 | −4.650 | −0.774 | −0.778 | −0.800
SSAP_82: SEQ ID NO: 251 (protein) ENEVMTQDQAYEVASPFGSSENFQKLFDIGKMFASSSLVPDRYRGKPMDCTIAVDMANRMGVSPMMVMQQLYVVKGNPQWSGQACMSLIRGSSEYKNVRPVYTGKKGEDSWGCYIEAEKKKTGEIVKGTEVTIAMAKAEGWYSKKDKYGNETSKWQTMPELMLAYRAAAFFARVYIPNALMGCAVEGEAEDIMKRAITAEDPFKEDAK | −4.391 | −4.498 | −0.873 | −4.284 | −0.776
SSAP_106: SEQ ID NO: 275; Tepidibacillus fermentans (protein, Tepidibacillus fermentans) ATNEKVKTQLANRANGQAPTPTPEQTIAAYMKKMAPRFAEVLPKHMDIDRMTRIALTTIRTNPKLLEASVPSLLGAIMQAAQLGLEPGLVGHCYLVPFKNGKTGQTEVQFIIGYKGMIDLARRSGNIESIYAHAVYENDTFEYEYGLHPKLVHKPAMTDRGEFIGAYAVAHFKDGGYQFEFMPKEEIEKRRNRSKTANGGPWVTDYEEMAKKTVVRHMWKYLPISIEIQQAAAQDEVIRKDVTSEPEFVDDVIDISTEIEEQSVEVEGEEAQ | −5.073 | −4.572 | −0.829 | −5.574 | −1.211
SSAP_275: SEQ ID NO: 444; Paenibacillus pinihumi (protein, listed as Paenibacillus pinihumi) ADANKLLVINEKLIKLIESKQDAMPKSFNKTRFIQNCMAVLQDTDEIDKCDATSVARTLLKGAFLGLDFMNKECYPIIYGGKCTFQTDYKGEIKLAQKYSVRPVLNIYAELVREGDFFLKEVKDGQRTIQHKPPEGFNDGKVIGAFAIVLYKDGGMDCESMSVAEIETTRKNYSKQANGPSWTKSPGEMQKKTVLRRLCKTIQLDFDTIEAKEAFEDGGDFDFKQDPKPQQQSPFDKNATVVDAEYEEVEEEDQSESAT | −2.900 | −4.593 | −0.870 | −1.206 | −0.494
SSAP_65: SEQ ID NO: 234 (protein) TQDLATAIADQQPAQRRTAFDLVESMRGELHKALPEHASIDNFLRLALTELKMNPQLGNCSGESLLGALMTAARVGLEVGGPLGQFYLTPRRLKRDGWAVVPIVGYRGLITLARRAGVGQVNAVVVHEGDTFREGASSERGFFFDWEPAVERGKPVGALAAARLAGGDVQHRYLSLAEVHERRDRGGFKDGSNSPWATDYDAMVRKTALRALVPLLPQSTALSFAVQADEQVQRYDAGDIDIPALDETDTEDTK | −2.185 | −4.569 | −0.746 | 0.198 | 0.190
SSAP_258: SEQ ID NO: 427; Clostridium thermopalmarium (protein, listed as Clostridium thermopalmarium) ATVNELKNEIATKKETGVGSAGNTIKGLINSPAIKKRFEDVLNKKAPQYMSSIVNLVNGDTNLKKCDQMSVIASCMVAATLDLPIDKNLGYAWIVPYGNRAQFQLGYKGYVQLALRTGQYKAINVIEVHEGELIEWNPLTEELKIDFSQKKSDAIIGYAGYFELLNGFKKSTYWTKEQIIRHKNKFSKSDFGWKKDFDAMAKKTVLRNMLSKWGILSIEMQNAYTADQATIRPEAVETGDIKGNVDYVEADFEENYEGTPFEEVEEGGVNE | −4.014 | −4.748 | −0.956 | −3.280 | −0.553
